Series [1] concerns the target T1, NEco (EcoKMcrA N-terminal domain) (Escherichia coli K) (UniProt P24200).
T1 sequence: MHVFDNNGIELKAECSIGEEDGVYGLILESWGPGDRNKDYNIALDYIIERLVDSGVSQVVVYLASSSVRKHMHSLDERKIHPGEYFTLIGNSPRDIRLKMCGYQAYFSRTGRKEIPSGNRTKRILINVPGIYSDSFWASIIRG
As to the kind of experiment: competition. The settings on record: 5mC in CpG, both strands; EMSA: 10 nM 33P/32P 30 bp duplex, 5-2000 nM NEco; competition: 10 nM labeled C5mCGG, 10 nM NEco, 3-3000 nM unlabeled competitor; buffer, pH and temperature not …. For orientation: In EMSA bound probe runs differently from free probe, usually more slowly.

For series [2], the target named is T2, NEco (EcoKMcrA N-terminal domain) (Escherichia coli K, UniProt P24200 1-143).
T2 sequence: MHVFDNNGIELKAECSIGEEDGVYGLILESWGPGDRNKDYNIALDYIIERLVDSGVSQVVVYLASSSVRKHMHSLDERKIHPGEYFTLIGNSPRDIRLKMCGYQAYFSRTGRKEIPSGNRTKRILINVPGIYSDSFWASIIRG
As to the kind of experiment: competition; EMSA: 10 nM 33P/32P 30 bp duplex, 5-2000 nM NEco; competition: 10 nM labeled C5mCGG, 10 nM NEco, 3-3000 nM unlabeled competitor; buffer, pH and temperature not. The settings on record: protein: recombinant.

Series [3] has as its target T2, NEco (EcoKMcrA N-terminal domain). The description is as above. To be noted: protein: recombinant. This is another data set of the same source.
Series [4] concerns the target T3, NEco W31A (Escherichia coli K, UniProt P24200 1-143, W31A).
T3 sequence: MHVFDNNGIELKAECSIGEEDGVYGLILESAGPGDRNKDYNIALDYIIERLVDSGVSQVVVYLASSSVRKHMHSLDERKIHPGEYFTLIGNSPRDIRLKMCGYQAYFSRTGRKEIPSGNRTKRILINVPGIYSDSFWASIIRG
As to the kind of experiment: EMSA; discrete complexes, unlike wt; EMSA: 10 nM 33P/32P 30 bp duplex, 5-2000 nM NEco; competition: 10 nM labeled C5mCGG, 10 nM NEco, 3-3000 nM unlabeled competitor; buffer, pH and temperature not. The settings on record: protein: recombinant.

Another series has as its target T4, NEco W31H (Escherichia coli K, UniProt P24200 1-143, W31H).
T4 sequence: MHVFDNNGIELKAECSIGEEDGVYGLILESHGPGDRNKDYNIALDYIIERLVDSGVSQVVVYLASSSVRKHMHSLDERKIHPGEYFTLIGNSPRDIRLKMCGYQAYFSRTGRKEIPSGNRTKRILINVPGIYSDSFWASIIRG
The experiment in a line: competition; EMSA: 10 nM 33P/32P 30 bp duplex, 5-2000 nM NEco; competition: 10 nM labeled C5mCGG, 10 nM NEco, 3-3000 nM unlabeled competitor; buffer, pH and temperature not. The settings on record: protein: recombinant.

A further series addresses T5, NEco W31S (Escherichia coli K, UniProt P24200 1-143, W31S).
T5 sequence: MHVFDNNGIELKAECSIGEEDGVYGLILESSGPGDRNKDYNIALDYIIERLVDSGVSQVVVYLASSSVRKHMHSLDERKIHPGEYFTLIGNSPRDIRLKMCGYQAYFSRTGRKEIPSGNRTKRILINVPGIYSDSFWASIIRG
The experiment in a line: EMSA; EMSA: 10 nM 33P/32P 30 bp duplex, 5-2000 nM NEco; competition: 10 nM labeled C5mCGG, 10 nM NEco, 3-3000 nM unlabeled competitor; buffer, pH and temperature not. To be noted: protein: recombinant.

Series [5] has as its target T3, NEco W31A. The description is as above. The settings on record: protein: recombinant.
Another series concerns the target T6, NEco S30A (Escherichia coli K, UniProt P24200 1-143, S30A).
T6 sequence: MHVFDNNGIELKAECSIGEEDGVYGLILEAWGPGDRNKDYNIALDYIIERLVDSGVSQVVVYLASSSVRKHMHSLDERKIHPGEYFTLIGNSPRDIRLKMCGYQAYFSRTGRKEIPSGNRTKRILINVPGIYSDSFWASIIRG
The series is described as above. The settings on record: protein: recombinant.

The next series concerns the target T7, NEco W31F (Escherichia coli K, UniProt P24200 1-143, W31F).
T7 sequence: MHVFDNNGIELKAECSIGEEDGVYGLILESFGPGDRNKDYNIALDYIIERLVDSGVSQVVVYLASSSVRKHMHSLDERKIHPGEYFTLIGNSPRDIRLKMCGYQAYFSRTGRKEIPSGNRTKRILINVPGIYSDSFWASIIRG
The description is as above. To be noted: protein: recombinant.

The target in a further series is T8, NEco W31Y (Escherichia coli K, UniProt P24200 1-143, W31Y).
T8 sequence: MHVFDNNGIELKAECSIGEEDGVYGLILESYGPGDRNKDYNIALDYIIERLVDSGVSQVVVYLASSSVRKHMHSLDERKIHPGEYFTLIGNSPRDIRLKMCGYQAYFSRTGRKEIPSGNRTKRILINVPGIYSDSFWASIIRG
The series is described as above. The settings on record: protein: recombinant.

In the next series the target is T9, NEco S30L (Escherichia coli K, UniProt P24200 1-143, S30L).
T9 sequence: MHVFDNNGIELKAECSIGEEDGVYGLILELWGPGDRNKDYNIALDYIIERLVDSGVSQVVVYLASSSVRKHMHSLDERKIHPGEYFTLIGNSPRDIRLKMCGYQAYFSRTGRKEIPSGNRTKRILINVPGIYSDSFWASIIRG
Described as above. To be noted: protein: recombinant.

In the next series the target is T10, NEco N119A (Escherichia coli K, UniProt P24200 1-143, N119A).
T10 sequence: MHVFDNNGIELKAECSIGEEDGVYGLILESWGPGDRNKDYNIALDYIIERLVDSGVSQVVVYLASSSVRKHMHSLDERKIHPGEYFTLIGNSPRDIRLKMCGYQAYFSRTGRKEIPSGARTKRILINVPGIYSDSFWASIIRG
The series is described as above. To be noted: protein: recombinant.

The target of the next series is T11, NEco W31V (Escherichia coli K, UniProt P24200 1-143, W31V).
T11 sequence: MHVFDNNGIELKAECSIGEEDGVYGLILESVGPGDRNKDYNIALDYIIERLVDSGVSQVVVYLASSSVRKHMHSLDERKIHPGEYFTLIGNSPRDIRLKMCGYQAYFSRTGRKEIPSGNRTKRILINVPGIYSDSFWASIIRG
Described as above. To be noted: protein: recombinant.

The target in another series is T12, NEco S30V (Escherichia coli K, UniProt P24200 1-143, S30V).
T12 sequence: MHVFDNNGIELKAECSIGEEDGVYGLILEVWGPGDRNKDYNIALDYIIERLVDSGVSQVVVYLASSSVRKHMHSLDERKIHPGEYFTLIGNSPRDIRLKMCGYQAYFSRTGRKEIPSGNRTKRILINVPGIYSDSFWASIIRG
Described as above. The settings on record: protein: recombinant.

A further series addresses T13, NEco W31L (Escherichia coli K, UniProt P24200 1-143, W31L).
T13 sequence: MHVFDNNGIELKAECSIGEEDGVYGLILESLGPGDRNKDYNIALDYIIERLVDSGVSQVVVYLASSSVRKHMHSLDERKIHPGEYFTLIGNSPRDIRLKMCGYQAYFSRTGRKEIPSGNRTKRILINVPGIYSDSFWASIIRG
The description is as above. The settings on record: protein: recombinant.

A further series addresses T14, NEco W31I (Escherichia coli K, UniProt P24200 1-143, W31I).
T14 sequence: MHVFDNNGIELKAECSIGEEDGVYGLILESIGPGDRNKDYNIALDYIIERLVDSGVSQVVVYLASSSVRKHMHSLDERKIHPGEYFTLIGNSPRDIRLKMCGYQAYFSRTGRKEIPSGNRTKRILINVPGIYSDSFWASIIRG
The series is described as above. The settings on record: protein: recombinant.

Take “AGACCCACGCTCAGCGCTTCCAGATTTATC (double strand) [30 bp G5mCGC]”: the binding signal (fold lower affinity than G5mCGG/C5mCGC) in series [1] is over 25.
Regarding “AGACCCACGCTCAGCGGTTCCAGATTTATC (double strand) [30 bp G5mCGG/C5mCGC]”, the binding signal (fold lower affinity than C5mCGG) in series [1] was 100.

B1: 30 bp C5hmCGG fully hydroxymethylated (dsDNA)
DNA 1: AGACCCACGCTCACCGGTTCCAGATTTATC
DNA 2: GATAAATCTGGAACCGGTGAGCGTGGGTCT
modifications: 5hmC at inner C of CCGG, both strands
As to B1, the binding signal in series [2] was ~40 fold lower affinity than fully methylated.

B2: 30 bp CTGG/C5mCAG (T:A pair) (dsDNA)
DNA 1: AGACCCACGCTCACTGGTTCCAGATTTATC
DNA 2: GATAAATCTGGAACCAGTGAGCGTGGGTCT
modifications: 5mC in one strand
Turning to B2, the binding signal in series [3] is > 2000 fold lower affinity than C5mCGG.

B3: 30 bp CCGG hemi-methylated (dsDNA)
DNA 1: AGACCCACGCTCACCGGTTCCAGATTTATC
DNA 2: GATAAATCTGGAACCGGTGAGCGTGGGTCT
modifications: 5mC at inner C of CCGG, one strand
As for B3, the binding signal in series [2] is ~230 fold lower affinity than fully methylated; with NEco W31H, ~35 fold lower affinity than fully methylated (same variant). Besides, the binding result with NEco W31A [4] was “binds”.

B4: 30 bp CTGG/C5mCGG (T:G mismatch) (dsDNA)
DNA 1: AGACCCACGCTCACTGGTTCCAGATTTATC
DNA 2: GATAAATCTGGAACCGGTGAGCGTGGGTCT
modifications: 5mC in one strand
For B4, in series [3] (T:G mismatch), the binding signal was ~500 fold lower affinity than C5mCGG.

B5: 30 bp C5mCGG fully methylated (dsDNA)
DNA 1: AGACCCACGCTCACCGGTTCCAGATTTATC
DNA 2: GATAAATCTGGAACCGGTGAGCGTGGGTCT
modifications: 5mC at inner C of CCGG, both strands
For the molecule B5, the binding result with NEco W31S, with NEco W31A [5], with NEco S30A, in the series with NEco W31F and in the series with NEco W31Y was “binds” in each case. The binding signal with NEco S30L was over 50 fold decreased vs wt NEco; with NEco N119A, about 40 fold impaired vs wt NEco; with NEco W31V, over 50 fold decreased vs wt NEco; with NEco S30V, over 50 fold decreased vs wt NEco; with NEco W31L, over 50 fold decreased vs wt NEco; with NEco W31I, over 50 fold decreased vs wt NEco.

B6: 30 bp CCGG non-methylated (dsDNA)
DNA 1: AGACCCACGCTCACCGGTTCCAGATTTATC
DNA 2: GATAAATCTGGAACCGGTGAGCGTGGGTCT
For the molecule B6, the binding signal in [2] was ~10 fold lower affinity than hemi-methylated.

These data come from PMC7145662, “Crystal structure of the EcoKMcrA N-terminal domain (NEco): recognition of modified cytosine bases without flipping”.
